Experimental data as given in patent publication US20140239237A1 (BOARD OF TRUSTEES OF MICHIGAN STATE UNIVERSITY, published 2014).

B1: PilA19 peptide (19 amino acid N-terminal truncation of G. sulfurreducens PilA) (peptide)
peptide: AIPQFSAYRVKAYNSAASSDLRNLKTALESAFADDQTYPPES
notes: 42 residues, released from the CBD-intein fusion with DTT; also called PilA19 subunit; PilA19 monomer
B2: PilA19-A20C cysteine-modified recombinant pilin (peptide)
peptide: CIPQFSAYRVKAYNSAASSDLRNLKTALESAFADDQTYPPES
notes: 42 residues; The N-terminal alanine of PilA19, position 20 of full-length mature PilA, is replaced by cysteine; also called cysteine-modified subunit; PilA19-A20C monomer

How the values were obtained:
[1] = target: the molecule itself; assay: in vitro self-assembly into fibers, seen by TEM and AFM
[2] = target: the molecule itself; assay: in vitro self-assembly, TEM

Protein | binding result [1] | binding result [2]
B1 | binds | –
B2 | – | binds
